# Measurements as given in patent US11795454B2, “Targeted delivery system” (Cedars-Sinai Medical Center, priority 2009, dated 2023).
# What was measured:
# HER2 siRNA = assay: siRNA gel mobility shift assay; type: binding; details: 50 pmol siRNA, increasing protein
# Source text: The gel was stained with ethidium bromide to visualize siRNA and siRNA-protein complexes.
# One goal was to assemble a noncovalent siRNA conjugate. […] The duplex, which was obtained from Invitrogen (Carlsbad, CA, USA), has been established elsewhere to specifically eliminate HER2 transcripts and thus induce apoptosis (Choudhury et al., 2004; Faltus et al., 2004).
# [1] = tested on: HER2+ (MDA-MB-435) tumors; assay: In vivo tumor targeting of Cy5-labeled siRNA, fluorescence imaging; set-up: species or system mouse; details: tail vein injection
# Source text: FIGS. 23A-23C depict in accordance with an embodiment herein, monitoring in vivo tumor targeting. […] The mice were immediately monitored by in vivo fluorescence intensity imaging through our collaborators' imaging facility (Farkas lab, Cedars-Sinai Medical Center). 23C, Analysis of the fluorescence intensity contrast between tumor and non-tumor areas of 23A and 23B (graphs).
# IFN-alpha [2] = assay: IFN-alpha secretion by sandwich ELISA, MDA-MB-231 cells; type: cell-based, human; details: 24 h
# Protocol: (§1) FIGS. 13A-13B depict, in accordance with an embodiment herein, cytokine induction. […] At 24 h after treatment, media was collected from above the cells and assayed for (FIG. 13A) IFN-alpha, or (FIG. 13B) IFN-beta titer by sandwich ELISA following manufacturer's protocol (PBL Biomedical Laboratories). *, P<0.01 (compared to untreated); **, P=0.01 (HER2+ vs HER2− cells); †, P<0.05 (compared to untreated). Statistical significances determined by 2-tailed t tests.
# (§2) To examine whether cytokines contribute to the targeted toxicity observed earlier, the media of HerPBK10-siRNA (T7-transcribed)-treated HER2+ MDA-MB-435 and HER2− MDA-MB-231 cells were collected and assayed by ELISA for interferons alpha and beta. […] Given the overall low level of cytokine detected in the medium by all treatments, these differences are likely to have little relevance.
# HER2+ MDA-MB-435 tumors = assay: Tumor growth after intratumoral injection; type: in vivo, mouse; details: two IT injections a week apart, 1.5 nmoles siRNA
# Protocol: FIGS. 15A-15B depict, in accordance with an embodiment herein, effect on tumor growth. Female (6-8 week) nude mice were inoculated with human HER2+ MDA-MB-435 cancer cells by subcutaneous flank injections of 1×10^7 cells per injection. At 4-6 weeks after implant, weekly measurements were taken to quantify tumor volume and track growth. […] Complex was prepared as described in FIG. 14. FIG. 15A, representative mice at week 4 with tumors indicated by arrows.
# Before testing for targeted toxicity of HerPBK10-siRNA, the inventors assessed cytotoxic potential in vivo after intratumoral (IT) injection of complexes in tumor-bearing mice. […] Blood was also collected after each injection to assess cytokine levels. […] Even though the complex was not delivered intravenously but rather by IT injection, there still appears to be an advantage to the targeted complex with regard to tumor toxicity.
# [3] = tested on: HER2+ human breast cancer cells; assay: Survival of HER2+ cells in culture after targeted conjugate (summary); type: cell-based; details: depending on the cell line
# Source text: The inventors designed HerPBK10 to penetrate HER2+ cells by combining the ‘Her’ domain for binding heregulin receptors, which have an increased ligand affinity on HER2+ tumor cells, and the membrane lysis and intracellular trafficking features of the ‘PB’ domain, which is derived from the cell-entry functions of the Ad capsid. Binding and transport of nucleic acids can be mediated by the polylysine, ‘K10’ domain. […] Using in vivo fluorescence imaging, it was observed that the targeting ligand used here specifically accumulates at HER2+ tumor tissue in mice while evading accumulation in other tissues. It was also observed that HerPBK10 could mediate the uptake of a Cy3-labeled oligonucleotide in HER2+ cells. […] Associated with this reduction was substantial target cell death.
# [4] = siRNA stability in serum, agarose gel electrophoresis; type: in vitro ADME, bovine; details: 100% serum, 1 h at 37° C.
# Source text: We examined the stability of siRNA conjugates in whole serum. […] Ethidium bromide staining of the agarose gel identifies the siRNA molecular size and relative concentration.
# IFN-alpha [5] = assay: IFN-alpha secretion by sandwich ELISA, MDA-MB-435 cells; type: cell-based, human; details: complex at 10 and 50 nM siRNA dose, HerPBK10 equivalent to 50 nM dose, 24 h
# Protocol: as §1, §2
# MDA-MB-435 (HER2+) cells [6] = assay: Cell survival (crystal violet) after targeted or lipo-mediated siRNA delivery; type: cell-based, human
# Protocol: (§3) Complexes were prepared as described in FIG. 2. Un, untreated. In FIG. 12A, *, P<0.02 (HER2+ vs HER2− cells). In FIG. 12B, *, P<0.05 (compared to untreated). Significant differences determined by 2-tailed t tests.
# MDA-MB-231 (HER2−) cells = assay: as above; type: cell-based, human
# Protocol: as §3
# IFN-alpha [7] = assay: In vivo cytokine induction, blood IFN-alpha ELISA after IT injection; set-up: species or system mouse; details: 24 h after each IT injection, compared to saline control
# Protocol: FIG. 16 depicts, in accordance with an embodiment herein, in vivo cytokine induction. Blood was collected from the mice treated in FIG. 15B at 24 h after each IT injection and relative IFN-alpha levels quantified by sandwich ELISA following manufacturer's protocol (PBL Biomedical Laboratories). Control, tumors receiving saline injections. *, P=0.05 compared to control (as determined by 2-tailed unpaired T test).
# To examine whether cytokines contribute to the tumor reduction observed and described herein, blood was collected from the same mice at 24 h after each IT injection and assayed for interferon (TFN)-alpha. […] It is possible that its indirect contribution results from enhanced tumor delivery, penetration, retention. Together with the tumor-shrinkage observed from these injections, these findings provide additional evidence that the targeted carrier, HerPBK10, can deliver both siRNA-mediated silencing and cytokine-mediated cytotoxicity to induce two-pronged targeted destruction to tumor cells.
# [8] = Ultrafiltration of HerPBK10-siRNA conjugates (100K mwco, high speed centrifugation); type: physicochemical
# Source text: FIGS. 6A-6B depict, in accordance with an embodiment described herein, HerPBK10-siRNA form stable conjugates that can be isolated by ultrafiltration. Conjugates were made in 0.1M Hepes/OptimemI buffer for 20′-RT, as described above. […] Filtrates and retentates were collected and loaded onto either a 2% agarose (FIGS. 6A and 6B, left panel) or 5% PAGE/native gel (FIG. 6B, right panel). Gels were stained for Et-Br to visualize siRNA and siRNA-protein complexes.
# MDA-MB-435 (HER2+) cells [9] = assay: HerDox targeted toxicity in vitro, separate cultures; type: cell-based, human; details: 10× molar excess
# Protocol: All treatments, N=3. FIG. 27A. Comparing cytotoxicity to HER2+ (MDAMB-435) and HER2− (MDA-MB-231) cells in separate cultures. Left, Relative survival (as % of untreated cells) on day 3 of treatment. Right, Micrograph of live cells after treatment. Control, mock (HBS) treatment. FIG. 27B, Receptor specificity of cytotoxicity. […] FIG. 27C, Toxicity to cells displaying differential HER2. Cytotoxicities from HerDox titrations were assessed on each cell line by metabolic assay and confirmed by crystal violet stain on day 3 of treatment. CD50 values (shown in log scale) were determined by non-linear regression analyses of HerDox killing curves using GraphPad Prism. The relative HER2 level of each cell line is shown next to each CD50 value. FIG. 27D, Targeting in a mixed MDA-MB-435(HER2+,GFP−)/MDA-MB-231(HER2−,GFP+) cell culture. Survival was determined by calculating the relative doubling time (DT) of experimental (exp) cells normalized by mock-treated (con) cells based on crystal violet stains (total cells) and GFP fluorescence (MDAMB-231 cells), and applying DTMDA-MB-435=DTTotal-DTMDA-MB-231 as previously described. Relative survival is shown for Day 2 of treatment. FIG. 27E, Targeted glioma cell death in vitro. U251 cells were treated once with the indicated HerDox (and competitive inhibitor where indicated) or Dox doses and measured for cell survival at the indicated time points after treatment. * P<0.05 compared to Mock.
# For all in vitro treatments, cell lines were grown for ˜36 h after plating (104/well in 96-well dishes) to allow receptor re-expression, followed by media replacement with new media containing indicated constructs in reduced volume at the indicated final molarities for 4 h with rocking, followed by supplementation with additional media and continued growth for the indicated time periods. Except for the experiments performed on the U251 glioma cells (which received a one-time treatment), cells received these treatments daily while separate sets of wells were assessed for cell death by either metabolic assay (CellTiter Promega Corporation, Madison, WI, USA) or crystal violet stain each day. Where indicated, cells received competitive inhibitor (eHRG) at 10× molar excess for 30 min-1 h at 4° C. before treatment. Treatment of mixed (HER2+/HER2−) cell cultures with HerDox or Dox (0.5 uM), and cell surface receptor subunit level determination were performed as previously described.
molecule,measurement,setting,value
PB: penton base segment of adenovirus serotype 5 [reference compound],siRNA electromobility,HER2 siRNA,did not
HerPBK10-siRNA: noncovalent conjugate of HerPBK10 with anti-HER2 siRNA bound via electrophilic interaction (conjugate) LPPRLKEMKSQESAAGSKLVLRCETSSEYSSLRFKWFKNGNELNRKNKPQNIKIQKKPGKSELRINKASLADSGEYMCKVISKLGNDSASANITIVESNEIITGMPASTEGAYVSSESPIRISVSTEGANTSSSTSTSTTGTSHLVKCAEKEKTFCVNGGECFMVKDLSNPSRYLCKCQPGFTGARCTENVPMKVQNQEKAEELYMRRAAMYEEGPPPSYESVVSAAPVAAALGSPFDAPLDPPFVPPRYLRPTGGRNSIRYSELAPLFDTTRVYLVDNKSTDVASLNYQNDHSNFLTTVIQNNDYSPGEASTQTINLDDRSHWGGDLKTILHTNMPNVNEFMFTNKFKARVMVSRLPTKDNQVELKYEWVEFTLPEGNYSETMTIDLMNNAIVEHYLKVGRQNGVLESDIGVKFDTRNFRLGFDPVTGLVMPGVYTNEAFHPDIILLPGCGVDFTHSRLSNLLGIRKRQPFQEGFRITYDDLEGGNIPALLDVDAYQASLKDDTEQGGGGAGGSNSSGSGAEENSNAAAAAMQPVEDMNDHAIRGDTFATRAEEKRAEAEAAAEAAAPAAQPEVEKPQKKPVIKPLTEDSKKRSYNLISNDSTFTQYRSWYLAYNYGDPQTGIRSWTLLCTPDVTCGSEQVYWSLPDMMQDPVTFRSTRQISNFPVVGAELLPVHSKSFYNDQAVYSQLIRQFTSLTHVFNRFPENQILARPPAPTITTVSENVPALTDHGTLPLRNSIGGVQRVTITDARRRTCPYVYKALGIVSPRVLSSRTFKKKKKKKKKK,tumor retention,[1],tumor retention
same,fluorescence intensity contrast between tumors and non-tumor areas,"[1]; all time points, compared to free siRNA",preferential tumor accumulation
same,IFN-alpha secretion,IFN-alpha [2],little affected
same,tumor growth,HER2+ MDA-MB-435 tumors,average reduction in tumor growth
same,reduction in HER2+ cell survival,[3],up to 85%
same,State of the siRNA (ethidium bromide staining),[4],intact
same,IFN-alpha secretion,IFN-alpha [5],substantially elevated
same,cell survival,MDA-MB-435 (HER2+) cells [6],dose-dependent reduction in survival
same,cell survival,MDA-MB-231 (HER2−) cells,little to no effect
same,circulating IFN-alpha,IFN-alpha [7],elevated circulating IFN-alpha
same,Free siRNA in 100K filtrates,[8],low to no detection of free siRNA
"eHRG: competitive inhibitor, competing ligand of the heregulin receptor (protein, UniProt Q02297 20-242, looked up, extracellular domain) extracellular domain: SGKKPESAAGSQSPALPPRLKEMKSQESAAGSKLVLRCETSSEYSSLRFKWFKNGNELNRKNKPQNIKIQKKPGKSELRINKASLADSGEYMCKVISKLGNDSASANITIVESNEIITGMPASTEGAYVSSESPIRISVSTEGANTSSSTSTSTTGTSHLVKCAEKEKTFCVNGGECFMVKDLSNPSRYLCKCQPGFTGARCTENVPMKVQNQEKAEELYQKR",effect of competitive inhibitor on cell killing by HerDox,MDA-MB-435 (HER2+) cells [9],prevented HER2+ cell killing
